Experimental findings from patent US8653242B2, “Therapeutic antibodies against flagellated Pseudomonas aeruginosa” (priority 2010, dated 2014) are described below.

Experiment [1] concerns the target P. aeruginosa flagellin type B (Pseudomonas aeruginosa, UniProt P72151). Kind of experiment: ELISA of LST-009 on recombinant flagellin type B. Format: binding. The following applies: 250 ng/well antigen. The method, then:
(§1) Two hundred and fifty ng (250 ng) of P. aeruginosa flagellin type A or B (50 μl from 5 μg/ml) were dispensed into each well of ELISA plates (Nunc, cat #442404) and coating allowed to proceed for 2 hours at room temperature with gentle shaking. Plates were then blocked with 200 μl PBS-10% fetal bovine serum (FBS) overnight at 4° C.
(§2) To that end, following three washes with PBS-0.05% Tween-20, 50 μl of a goat anti-human IgG (Fc)-HRP (Cat # A80-104P; Bethyl, Tex., USA) was added at a dilution of 1:10,000 in PBS-10% FBS with incubation allowed to proceed for 60 min at room temperature. Following 3 separate washes with PBS-Tween-20 (0.05%) and gentle tapping of plates on paper towels to remove final traces of wash buffer, 50 μl TMB/E substrate solution (Cat #ES001-500 ml; Millipore) was added for 15 min at room temperature. Thereafter, signal was quenched with 50 μl 10% H2SO4 and plates read at 450 nm in a Microtiter plate reader (Anthos MultiRead 400).

Experiment [2] concerns PA27853 (flagellin type A). Kind of experiment: ELISA on formaldehyde-fixed PA27853. Particulars: fixed whole bacteria ELISA, 1 nM mAb. The format is binding, P. aeruginosa. The method, then:
(§3) From a single fresh bacterial colony, PA strains 27853 (harboring flagellin type A) or Ka02 (harboring flagellin type B) were grown overnight in 5 ml LB at 37° C. Thereafter, bacterial cultures were centrifuged at 1500 g for 30 min and following removal of the clear supernatant, pellets were washed twice with 20 ml PBS with intervening centrifugation. The final pellet was resuspended in a volume of PBS (˜10 ml) and adjusted to generate an OD600 of ˜0.2 and maintained on ice prior to coating on ELISA plates which were prepared as follows: to the wells of flat-bottomed ELISA plates (Nunc, cat #442404), 50 μl poly-L-lysine (PLL, Sigma Cat # P-1524) of a 1 μg/ml solution was added and plates were incubated for 30 min at room temperature. Thereafter, non-adsorbed PLL was removed. Fifty μl of the appropriate bacterial suspensions from the different strains at 0.2 OD600 nm were added to the PLL-coated ELISA plates. In some wells, a “mixed-bacterial population” was added. To that end, 25 μl of PA 27853 and 25 μl of Ka02 bacterial suspensions were added to the same wells. […]
(§4) ELISA plates containing the fixed P. aeruginosa bacteria, were blocked by adding 200 μl PBS-10% FBS for 60 min at room temperature. […] Thereafter, signal was quenched with 50 μA 10% H2SO4 and plates read at 450 nm in a Microtiter plate reader (Anthos MultiRead 400).

Experiment [3] concerns mixed PA27853 and Ka02 bacteria. As to the kind of experiment: ELISA on mixed fixed bacteria. The format is binding, P. aeruginosa. Particulars: 1 nM mAb; wells coated with half the amount of each strain. The method, then: as §3
ELISA plates containing the fixed P. aeruginosa bacteria, were blocked by adding 200 μl PBS-10% FBS for 60 min at room temperature. […] Thereafter, signal was quenched with 50 μA 10% H2SO4 and plates read at 450 nm in a Microtiter plate reader (Anthos MultiRead 400). […]
(In general: In an ELISA, binding on a coated surface is turned into a signal by an enzyme label.)

The test system of experiment [4] is flagellin type A strains (PA141, PA49, PA1, PA409 and PAK). As to the kind of experiment: Western blot of P. aeruginosa lysates, flagellin type A strains. Format: binding. The following applies: mAb 10 μg/ml. The method, then:
(§5) The binding specificity of the chimeric LST-003 mAb was assessed in a western blot experiment as compared to the parental mouse LST-001 mAb. Two identical, yet separate nitrocellulose membranes containing a panel of blotted P. aeruginosa lysates of type A or B flagellin following electrophoresis were hybridized with either mouse LST-001 (FIG. 5A) or chimeric LST-003 (FIG. 5B) mAbs at identical final concentrations (10 μg/ml) with the ensuing detecting secondary peroxidase-conjugated antibodies being anti-mouse Fc or anti-human Fc respectively. Laboratory strains PAK (type A flagellin) or PA01 (type B flagellin) were included as appropriate controls whereas other strains represented multi-drug resistant (MDR) P. aeruginosa strains. […] FIG. 6 also depicts binding of LST-001, LST-002 and LST-003 to immobilized, whole P. aeruginosa as measured in an ELISA and confirms the western blot findings. See below in Example 7 for the ELISA protocol.
Background: In western blotting, separated proteins are transferred to a membrane and probed.

Experiment [5] has as its target T1, flagellin type B strains (PA21 and PA01) (Pseudomonas aeruginosa, UniProt P72151).
T1 construct: a panel of blotted P. aeruginosa lysates of type A or B flagellin; endogenous in cells; host or cells: P. aeruginosa strains PA21 (MDR isolate) and PA01 (laboratory strain)
As to the kind of experiment: Western blot of P. aeruginosa lysates, flagellin type B strains. Format: binding. Particulars: mAb 10 μg/ml. The method, then:
as §5

The target in experiment [6] is P. aeruginosa flagellin type A (Pseudomonas aeruginosa, UniProt P21184). Kind of experiment: ELISA of LST-009 on recombinant flagellin type A. The format is binding. The following applies: 250 ng/well antigen. The method, then: as §1, §2
Chain of P. aeruginosa flagellin type A (P21184 whole entry): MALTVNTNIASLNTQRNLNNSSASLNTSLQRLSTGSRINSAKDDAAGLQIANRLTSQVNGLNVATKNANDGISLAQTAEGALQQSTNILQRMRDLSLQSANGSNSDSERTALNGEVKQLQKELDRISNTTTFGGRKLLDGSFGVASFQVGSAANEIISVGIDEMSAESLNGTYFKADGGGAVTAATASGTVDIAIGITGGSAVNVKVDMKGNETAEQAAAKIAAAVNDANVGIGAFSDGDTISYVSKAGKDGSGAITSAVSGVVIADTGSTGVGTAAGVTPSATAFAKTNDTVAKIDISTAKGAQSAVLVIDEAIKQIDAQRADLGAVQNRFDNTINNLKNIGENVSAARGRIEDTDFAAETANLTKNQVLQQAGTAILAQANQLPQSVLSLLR
A further experiment concerns Ka02 (flagellin type B). Kind of experiment: ELISA on formaldehyde-fixed Ka02. The format is binding, P. aeruginosa. The following applies: fixed whole bacteria ELISA, 1 nM mAb. The procedure:
as §3, §4

T1 sequence (P72151 whole entry): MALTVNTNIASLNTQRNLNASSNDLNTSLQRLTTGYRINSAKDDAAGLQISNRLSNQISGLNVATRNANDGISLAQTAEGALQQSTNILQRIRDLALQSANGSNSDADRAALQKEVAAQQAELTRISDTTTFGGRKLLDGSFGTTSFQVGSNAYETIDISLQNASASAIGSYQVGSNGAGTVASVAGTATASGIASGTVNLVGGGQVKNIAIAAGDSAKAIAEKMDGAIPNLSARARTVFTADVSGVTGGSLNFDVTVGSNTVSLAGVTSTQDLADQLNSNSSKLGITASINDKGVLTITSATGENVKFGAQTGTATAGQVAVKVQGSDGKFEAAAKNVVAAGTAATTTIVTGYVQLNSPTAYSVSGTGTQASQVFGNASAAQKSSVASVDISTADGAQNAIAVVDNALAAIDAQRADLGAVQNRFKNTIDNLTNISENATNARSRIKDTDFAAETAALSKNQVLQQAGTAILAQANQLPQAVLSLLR
Chain of P. aeruginosa flagellin type B (P72151 whole entry): as above

B1: LST-004 (antibody, V domains shown)
VH: MNFGLSLVFLVLILKGVQCEVMLVESGGGLVKPGGSLKLSCAASGFTFSTFTMSWVRQTPEKRLECVATINGGGGNTYYPDSVKGRFTISRDNAKNNLYLQMSSLRSEDTAFYFCSRLYGIYAMDYWGQGTSVTVSS
VL: MKSHTQVFVYMLLWLSGVEGDIVMTQSHIFMSTSVGDRVSITCKASQDVGSAVAWYQQKPGQSPKVLIYWTSTRHTGVPDRFAGSGSGTEFTLTISNVQSEDLADYFCQQYSSYPLTFGAGTKLELKR
modifications: human IgG1 constant domains lacking entries
On to B1, for which, in experiment [1], the “EC50 towards P. aeruginosa flagellin type B” value was “approximately 300 ng/ml”. Further, the “binding to PA27853” value in experiment [2] was “minimal signal”. For the same molecule, the “OD as compared to FIG. 16 (full amount of bacteria)” value in experiment [3] is “approximately 50%”.

B2: LST-003 (antibody, V domains shown)
VH: MMVLSLLYLLTAIPGILSDVQLQESGPGLVKPSQSLSLPCSVTGYSITSGYYWNWIRQFPGNKLEWMGYIRYDGNNNYNPSLKNRISITHDTSKNQFFLKLNYVTTEDTATYYCARGLQFYFDSWGQGTTLTVSS
VL: MVLILLLLWVSGTCGDIVMSQSPSSLAVSGGEKVTMSCKSSQSLLNGSYQKHTLAWYQQKPGQSPKLLIYWASTRESGVPDRFTGSGSGTDFTLTISSVKAEDLAVYYCQQYYSYPWTFGGGTKLEIKR
modifications: human IgG1 constant domains lacking entries
Take B2: the “immunoblot reactivity to flagellin type A strains” value in experiment [4] was “stronger binding”. For the same molecule, in experiment [5], the “immunoblot reactivity to flagellin type B strains” value was “not flagellin type B”. Besides, the “EC50 towards P. aeruginosa flagellin type A” value in experiment [6] is recorded as “approximately 65 ng/ml”. Besides, in the experiment on Ka02 (flagellin type B), the “binding to Ka02” value was “failed to bind Ka02”. In experiment [3], the “OD as compared to FIG. 16 (full amount of bacteria)” value was “approximately 50%”.
